These results are taken from patent publication US20240279318A1 (NANJING LEGEND BIOTECH, published 2024).

Assay [1] concerns the target T1, AFP158/HLA-A*02:01 complex (human).
T1 construct: flowed as analyte in SPR
Description: SPR, crude scFv captured, pMHC analyte.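 Note: complex injected at several concentrations over the chip, association phase then running buffer for dissociation, KD derived from on- and off-rates computed from both curves.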 Background: In SPR one partner is held on a chip, and binding of the other changes the refractive index at the surface.
Description: The experiment was carried out as follows. The crude scFv protein were captured onto the sensorchip. Different concentrations (320, 160, 40 nM) of AFP158/HLA-A*02:01 complex flowed over the sensorchip surface, and were allowed to bind the antibody fragment for 100 s followed by injection of the running buffer to allow dissociation of the complex. On-rate (kd) and off-rate (kd) were calculated based on association and dissociation curve, and were used to estimate the equilibrium dissociation constant (KD).
The crude scFv muteins were then subjected to SPR affinity measurement by the method mentioned above.

For assay [2], the target named is T2, AFP158/HLA-A*02:01 complex (human).
T2 construct: biotinylated on the BSP by BirA for ELISA and panning; also called biotinylated AFP158/HLA-A*02:01 complex; Bio-AFP158
Put plainly: SPR; vs AS170036 VL1VH1.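 Note: crude scFv captured on sensor chip, peptide–HLA complex flowed over at several concentrations, KD estimated from association and dissociation kinetic rates.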

The target of assay [3] is T2, AFP158/HLA-A*02:01 complex. Description: SPR, crude scFv captured.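 Note: Peptide–MHC complex flowed at several concentrations over sensorchip-captured scFv, Kd derived from on- and off-rates obtained from the association and dissociation curves.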

As usually defined, the Kd is the equilibrium constant for the complex coming apart. Low readings indicate higher affinity, high ones lower affinity. Usually koff stands for the rate constant with which the complex falls apart. What is called kon is a measure of how fast the partners come together. A lower kon goes with slower complex formation.

B1: AS170036 VL1VH1-57M98I108S (scFv)
scFv: QSALTQPRSVSGSPGQSVTISCAGTSSDVGSENYVSWYQQHPGKAPKLMIYQVNKRASGVPDRFSGSKSGNTASLTISGLQAEDEADYYCASYRSSDINIVFGGGTKLTVLGGGGSGGGGSGGGGSEVQLVESGGGLVQPGGSLRLSCAASGFTFSSYAMSWVRQAPGKGLEWVSTINSGTGMPYYADSVKGRFTISRDNSKNTLYLQMNSLRAEDTAVYYCAKNFFDGSWFLSPPAMDYWGQGTLVTVSSHHHHHH
notes: also called 81-AS170036 VL1VH1-57M98I108S
Regarding B1, in assay [1], binding was characterised by a dissociation constant (Kd) of 21 nM, the koff was 0.0035 s⁻¹ and the on-rate (kon) stood at 170000 M⁻¹ s⁻¹.

B2: AS170036 VL1VH1 HG56A (scFv)
scFv: QSALTQPRSVSGSPGQSVTISCAGTSSDVGSENYVSWYQQHPGKAPKLMIYQVNKRASGVPDRFSGSKSGNTASLTISGLQAEDEADYYCASYRSSDHNIVFGGGTKLTVLGGGGSGGGGSGGGGSEVQLVESGGGLVQPGGSLRLSCAASGFTFSSYAMSWVRQAPGKGLEWVSTINSGTASPYYADSVKGRFTISRDNSKNTLYLQMNSLRAEDTAVYYCAKNFFDGSWFLGPPAMDYWGQGTLVTVSSHHHHHH
B2 registered an Affinity increase in assay [2] of 1.4 fold. Besides, in assay [3], the equilibrium dissociation constant (Kd) came to 160 nM.

B3: AS170036 VL1VH1 HD102N (scFv)
scFv: QSALTQPRSVSGSPGQSVTISCAGTSSDVGSENYVSWYQQHPGKAPKLMIYQVNKRASGVPDRFSGSKSGNTASLTISGLQAEDEADYYCASYRSSDHNIVFGGGTKLTVLGGGGSGGGGSGGGGSEVQLVESGGGLVQPGGSLRLSCAASGFTFSSYAMSWVRQAPGKGLEWVSTINSGTGSPYYADSVKGRFTISRDNSKNTLYLQMNSLRAEDTAVYYCAKNFFNGSWFLGPPAMDYWGQGTLVTVSSHHHHHH
On to B3, for which, in assay [2], the Affinity increase turned out to be 0.1 fold. In addition, in assay [3], the equilibrium dissociation constant (Kd) was determined as 2500 nM.

B4: AS170036 VL1VH1 HD102I (scFv)
scFv: QSALTQPRSVSGSPGQSVTISCAGTSSDVGSENYVSWYQQHPGKAPKLMIYQVNKRASGVPDRFSGSKSGNTASLTISGLQAEDEADYYCASYRSSDHNIVFGGGTKLTVLGGGGSGGGGSGGGGSEVQLVESGGGLVQPGGSLRLSCAASGFTFSSYAMSWVRQAPGKGLEWVSTINSGTGSPYYADSVKGRFTISRDNSKNTLYLQMNSLRAEDTAVYYCAKNFFIGSWFLGPPAMDYWGQGTLVTVSSHHHHHH
The molecule B4 showed an Affinity increase in assay [2] of 0.1 fold. For the same molecule, the Kd in assay [3] turned out to be 1900 nM.

B5: AS170036 VL1VH1 HD102E (scFv)
scFv: QSALTQPRSVSGSPGQSVTISCAGTSSDVGSENYVSWYQQHPGKAPKLMIYQVNKRASGVPDRFSGSKSGNTASLTISGLQAEDEADYYCASYRSSDHNIVFGGGTKLTVLGGGGSGGGGSGGGGSEVQLVESGGGLVQPGGSLRLSCAASGFTFSSYAMSWVRQAPGKGLEWVSTINSGTGSPYYADSVKGRFTISRDNSKNTLYLQMNSLRAEDTAVYYCAKNFFEGSWFLGPPAMDYWGQGTLVTVSSHHHHHH
B5 registered an Affinity increase in assay [2] of 1.2 fold. The molecule further came in with a Kd in assay [3] of 190 nM.

B6: AS170036 VL1VH1 HD102S (scFv)
scFv: QSALTQPRSVSGSPGQSVTISCAGTSSDVGSENYVSWYQQHPGKAPKLMIYQVNKRASGVPDRFSGSKSGNTASLTISGLQAEDEADYYCASYRSSDHNIVFGGGTKLTVLGGGGSGGGGSGGGGSEVQLVESGGGLVQPGGSLRLSCAASGFTFSSYAMSWVRQAPGKGLEWVSTINSGTGSPYYADSVKGRFTISRDNSKNTLYLQMNSLRAEDTAVYYCAKNFFSGSWFLGPPAMDYWGQGTLVTVSSHHHHHH
In assay [2], B6 gave an Affinity increase of 0.4 fold. Further, the Kd in assay [3] was 520 nM.

B7: AS170036 VL1VH1 HD102L (scFv)
scFv: QSALTQPRSVSGSPGQSVTISCAGTSSDVGSENYVSWYQQHPGKAPKLMIYQVNKRASGVPDRFSGSKSGNTASLTISGLQAEDEADYYCASYRSSDHNIVFGGGTKLTVLGGGGSGGGGSGGGGSEVQLVESGGGLVQPGGSLRLSCAASGFTFSSYAMSWVRQAPGKGLEWVSTINSGTGSPYYADSVKGRFTISRDNSKNTLYLQMNSLRAEDTAVYYCAKNFFLGSWFLGPPAMDYWGQGTLVTVSSHHHHHH
In assay [2], B7 displayed an Affinity increase of 0.1 fold. The same molecule displayed a Kd in assay [3] of 1700 nM.

B8: AS170036 VL1VH1 HD102M (scFv)
scFv: QSALTQPRSVSGSPGQSVTISCAGTSSDVGSENYVSWYQQHPGKAPKLMIYQVNKRASGVPDRFSGSKSGNTASLTISGLQAEDEADYYCASYRSSDHNIVFGGGTKLTVLGGGGSGGGGSGGGGSEVQLVESGGGLVQPGGSLRLSCAASGFTFSSYAMSWVRQAPGKGLEWVSTINSGTGSPYYADSVKGRFTISRDNSKNTLYLQMNSLRAEDTAVYYCAKNFFMGSWFLGPPAMDYWGQGTLVTVSSHHHHHH
B8 displayed an Affinity increase in assay [2] of 0.3 fold. Also, the equilibrium dissociation constant (Kd) in assay [3] is 840 nM.

B9: AS170036 VL1VH1 HD102P (scFv)
scFv: QSALTQPRSVSGSPGQSVTISCAGTSSDVGSENYVSWYQQHPGKAPKLMIYQVNKRASGVPDRFSGSKSGNTASLTISGLQAEDEADYYCASYRSSDHNIVFGGGTKLTVLGGGGSGGGGSGGGGSEVQLVESGGGLVQPGGSLRLSCAASGFTFSSYAMSWVRQAPGKGLEWVSTINSGTGSPYYADSVKGRFTISRDNSKNTLYLQMNSLRAEDTAVYYCAKNFFPGSWFLGPPAMDYWGQGTLVTVSSHHHHHH
The molecule B9 registered an Affinity increase in assay [2] of 0.3 fold. Also, the affinity in assay [3], expressed as Kd, was 880 nM.

B10: AS170036 VL1VH1 HD102Q (scFv)
scFv: QSALTQPRSVSGSPGQSVTISCAGTSSDVGSENYVSWYQQHPGKAPKLMIYQVNKRASGVPDRFSGSKSGNTASLTISGLQAEDEADYYCASYRSSDHNIVFGGGTKLTVLGGGGSGGGGSGGGGSEVQLVESGGGLVQPGGSLRLSCAASGFTFSSYAMSWVRQAPGKGLEWVSTINSGTGSPYYADSVKGRFTISRDNSKNTLYLQMNSLRAEDTAVYYCAKNFFQGSWFLGPPAMDYWGQGTLVTVSSHHHHHH
With B10, the Affinity increase in assay [2] came to 0.2 fold. Binding in assay [3] was characterised by a dissociation constant (Kd) of 950 nM.

B11: AS170036 VL1VH1 HD102G (scFv)
scFv: QSALTQPRSVSGSPGQSVTISCAGTSSDVGSENYVSWYQQHPGKAPKLMIYQVNKRASGVPDRFSGSKSGNTASLTISGLQAEDEADYYCASYRSSDHNIVFGGGTKLTVLGGGGSGGGGSGGGGSEVQLVESGGGLVQPGGSLRLSCAASGFTFSSYAMSWVRQAPGKGLEWVSTINSGTGSPYYADSVKGRFTISRDNSKNTLYLQMNSLRAEDTAVYYCAKNFFGGSWFLGPPAMDYWGQGTLVTVSSHHHHHH
Molecule B11 returned an Affinity increase in assay [2] of 0.1 fold. In assay [3], the Kd was 2500 nM.

B12: AS170036 VL1VH1 HD102A (scFv)
scFv: QSALTQPRSVSGSPGQSVTISCAGTSSDVGSENYVSWYQQHPGKAPKLMIYQVNKRASGVPDRFSGSKSGNTASLTISGLQAEDEADYYCASYRSSDHNIVFGGGTKLTVLGGGGSGGGGSGGGGSEVQLVESGGGLVQPGGSLRLSCAASGFTFSSYAMSWVRQAPGKGLEWVSTINSGTGSPYYADSVKGRFTISRDNSKNTLYLQMNSLRAEDTAVYYCAKNFFAGSWFLGPPAMDYWGQGTLVTVSSHHHHHH
For B12, the Affinity increase in assay [2] came to 0.4 fold. The Kd in assay [3] stood at 590 nM.

B13: AS170036 VL1VH1 HD102T (scFv)
scFv: QSALTQPRSVSGSPGQSVTISCAGTSSDVGSENYVSWYQQHPGKAPKLMIYQVNKRASGVPDRFSGSKSGNTASLTISGLQAEDEADYYCASYRSSDHNIVFGGGTKLTVLGGGGSGGGGSGGGGSEVQLVESGGGLVQPGGSLRLSCAASGFTFSSYAMSWVRQAPGKGLEWVSTINSGTGSPYYADSVKGRFTISRDNSKNTLYLQMNSLRAEDTAVYYCAKNFFTGSWFLGPPAMDYWGQGTLVTVSSHHHHHH
For B13, the Affinity increase in assay [2] worked out at 0.1 fold. In assay [3], this molecule returned an equilibrium dissociation constant (Kd) of 1800 nM.
